Legend:
Test in all cases: cleavage_in_vitro
[1] = test system: T1, OMNI-91 (metagenomic, unknown); details: TXTL; PAM NNGNRTNN
T1 sequence: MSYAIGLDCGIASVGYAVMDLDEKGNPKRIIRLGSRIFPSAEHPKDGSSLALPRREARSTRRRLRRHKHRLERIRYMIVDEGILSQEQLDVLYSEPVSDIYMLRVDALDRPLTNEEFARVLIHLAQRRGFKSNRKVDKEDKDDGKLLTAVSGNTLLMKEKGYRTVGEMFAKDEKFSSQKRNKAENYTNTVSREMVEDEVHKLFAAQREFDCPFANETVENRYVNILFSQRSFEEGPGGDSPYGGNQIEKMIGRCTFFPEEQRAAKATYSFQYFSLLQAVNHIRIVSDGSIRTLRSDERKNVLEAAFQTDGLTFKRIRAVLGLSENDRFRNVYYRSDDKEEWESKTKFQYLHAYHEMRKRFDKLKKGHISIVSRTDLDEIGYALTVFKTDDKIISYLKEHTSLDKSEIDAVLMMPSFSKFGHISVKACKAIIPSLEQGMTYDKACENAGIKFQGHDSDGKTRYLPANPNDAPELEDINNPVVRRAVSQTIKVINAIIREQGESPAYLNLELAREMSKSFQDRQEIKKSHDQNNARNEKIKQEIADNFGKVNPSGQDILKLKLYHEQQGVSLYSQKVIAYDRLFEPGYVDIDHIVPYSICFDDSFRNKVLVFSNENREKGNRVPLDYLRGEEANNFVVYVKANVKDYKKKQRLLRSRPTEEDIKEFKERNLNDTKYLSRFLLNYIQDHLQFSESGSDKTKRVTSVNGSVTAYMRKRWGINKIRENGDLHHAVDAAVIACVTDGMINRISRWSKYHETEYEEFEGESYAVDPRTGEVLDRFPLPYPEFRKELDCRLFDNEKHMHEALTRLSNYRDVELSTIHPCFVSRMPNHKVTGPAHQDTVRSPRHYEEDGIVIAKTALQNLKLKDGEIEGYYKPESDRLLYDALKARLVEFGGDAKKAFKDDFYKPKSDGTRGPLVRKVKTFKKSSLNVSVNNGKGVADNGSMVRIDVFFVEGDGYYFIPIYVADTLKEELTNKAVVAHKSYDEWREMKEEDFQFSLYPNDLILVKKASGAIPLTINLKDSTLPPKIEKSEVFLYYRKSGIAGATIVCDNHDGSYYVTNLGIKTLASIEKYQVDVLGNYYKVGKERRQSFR

[2] = test system: T2, OMNI-129 (metagenomic, unknown); details: TXTL; PAM NNNNGAAA
T2 sequence: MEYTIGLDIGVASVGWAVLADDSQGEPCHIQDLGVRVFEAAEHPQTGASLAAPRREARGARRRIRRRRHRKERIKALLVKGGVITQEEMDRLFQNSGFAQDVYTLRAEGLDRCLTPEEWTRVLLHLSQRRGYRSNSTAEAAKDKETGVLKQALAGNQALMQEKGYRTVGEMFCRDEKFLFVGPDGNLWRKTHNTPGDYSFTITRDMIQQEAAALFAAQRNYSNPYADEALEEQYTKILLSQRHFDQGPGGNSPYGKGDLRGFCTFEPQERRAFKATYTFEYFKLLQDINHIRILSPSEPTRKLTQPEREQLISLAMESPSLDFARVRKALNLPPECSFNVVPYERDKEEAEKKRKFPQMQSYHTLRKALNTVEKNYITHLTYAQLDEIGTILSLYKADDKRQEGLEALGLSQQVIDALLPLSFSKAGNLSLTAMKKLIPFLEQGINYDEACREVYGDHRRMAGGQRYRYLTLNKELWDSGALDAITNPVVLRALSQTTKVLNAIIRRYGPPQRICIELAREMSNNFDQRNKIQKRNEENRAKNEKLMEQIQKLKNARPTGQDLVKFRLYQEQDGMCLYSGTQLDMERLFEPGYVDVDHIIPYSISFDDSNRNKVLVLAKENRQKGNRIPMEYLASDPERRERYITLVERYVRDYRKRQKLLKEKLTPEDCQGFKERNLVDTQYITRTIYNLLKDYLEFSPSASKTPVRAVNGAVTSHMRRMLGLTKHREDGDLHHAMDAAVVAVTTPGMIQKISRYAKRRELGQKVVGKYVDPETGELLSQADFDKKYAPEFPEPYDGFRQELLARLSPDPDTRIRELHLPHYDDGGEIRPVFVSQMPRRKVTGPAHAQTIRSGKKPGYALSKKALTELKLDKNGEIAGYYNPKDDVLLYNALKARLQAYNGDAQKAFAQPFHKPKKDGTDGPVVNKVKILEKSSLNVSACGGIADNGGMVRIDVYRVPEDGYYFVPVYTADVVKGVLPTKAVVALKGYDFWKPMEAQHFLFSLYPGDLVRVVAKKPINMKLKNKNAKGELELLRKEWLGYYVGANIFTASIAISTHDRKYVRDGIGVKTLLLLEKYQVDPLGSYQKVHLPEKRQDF

[3] = test system: T3, OMNI-128 (metagenomic, unknown); details: TXTL; PAM NRYHCCNN
T3 sequence: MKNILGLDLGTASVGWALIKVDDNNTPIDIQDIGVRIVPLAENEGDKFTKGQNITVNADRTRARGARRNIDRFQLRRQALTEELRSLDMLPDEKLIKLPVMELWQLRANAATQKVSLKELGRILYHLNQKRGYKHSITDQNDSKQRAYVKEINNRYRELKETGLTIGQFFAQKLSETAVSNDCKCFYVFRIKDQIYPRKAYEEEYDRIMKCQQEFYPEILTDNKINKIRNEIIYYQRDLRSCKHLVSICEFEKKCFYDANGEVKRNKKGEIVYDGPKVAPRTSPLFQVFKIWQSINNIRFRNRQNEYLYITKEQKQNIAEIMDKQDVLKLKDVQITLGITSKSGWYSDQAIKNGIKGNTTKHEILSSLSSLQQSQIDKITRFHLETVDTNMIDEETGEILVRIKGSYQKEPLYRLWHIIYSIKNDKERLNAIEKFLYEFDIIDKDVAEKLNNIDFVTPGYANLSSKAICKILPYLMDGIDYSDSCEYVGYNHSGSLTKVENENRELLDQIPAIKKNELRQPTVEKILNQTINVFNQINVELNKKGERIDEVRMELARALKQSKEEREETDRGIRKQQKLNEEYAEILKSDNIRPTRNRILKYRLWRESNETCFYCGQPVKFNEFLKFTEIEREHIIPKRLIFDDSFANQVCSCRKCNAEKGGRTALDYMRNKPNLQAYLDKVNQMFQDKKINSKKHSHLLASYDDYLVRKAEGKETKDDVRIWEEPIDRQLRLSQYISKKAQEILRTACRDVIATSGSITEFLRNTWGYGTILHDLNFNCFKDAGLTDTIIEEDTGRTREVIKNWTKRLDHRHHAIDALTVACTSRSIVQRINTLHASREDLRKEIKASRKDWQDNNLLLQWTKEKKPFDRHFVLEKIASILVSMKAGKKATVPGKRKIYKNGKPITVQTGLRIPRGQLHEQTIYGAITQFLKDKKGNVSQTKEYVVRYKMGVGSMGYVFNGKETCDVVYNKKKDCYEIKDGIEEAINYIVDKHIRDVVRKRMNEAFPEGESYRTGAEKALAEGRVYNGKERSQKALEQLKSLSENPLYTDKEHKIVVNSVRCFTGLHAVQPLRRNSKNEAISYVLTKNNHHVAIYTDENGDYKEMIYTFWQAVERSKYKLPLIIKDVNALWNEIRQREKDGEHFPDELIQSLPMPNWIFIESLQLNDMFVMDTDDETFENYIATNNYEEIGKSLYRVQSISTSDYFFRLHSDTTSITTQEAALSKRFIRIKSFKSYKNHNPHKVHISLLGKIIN

[4] = test system: T4, OMNI-131 (metagenomic, unknown); details: TXTL; PAM NRWRCCNN
T4 sequence: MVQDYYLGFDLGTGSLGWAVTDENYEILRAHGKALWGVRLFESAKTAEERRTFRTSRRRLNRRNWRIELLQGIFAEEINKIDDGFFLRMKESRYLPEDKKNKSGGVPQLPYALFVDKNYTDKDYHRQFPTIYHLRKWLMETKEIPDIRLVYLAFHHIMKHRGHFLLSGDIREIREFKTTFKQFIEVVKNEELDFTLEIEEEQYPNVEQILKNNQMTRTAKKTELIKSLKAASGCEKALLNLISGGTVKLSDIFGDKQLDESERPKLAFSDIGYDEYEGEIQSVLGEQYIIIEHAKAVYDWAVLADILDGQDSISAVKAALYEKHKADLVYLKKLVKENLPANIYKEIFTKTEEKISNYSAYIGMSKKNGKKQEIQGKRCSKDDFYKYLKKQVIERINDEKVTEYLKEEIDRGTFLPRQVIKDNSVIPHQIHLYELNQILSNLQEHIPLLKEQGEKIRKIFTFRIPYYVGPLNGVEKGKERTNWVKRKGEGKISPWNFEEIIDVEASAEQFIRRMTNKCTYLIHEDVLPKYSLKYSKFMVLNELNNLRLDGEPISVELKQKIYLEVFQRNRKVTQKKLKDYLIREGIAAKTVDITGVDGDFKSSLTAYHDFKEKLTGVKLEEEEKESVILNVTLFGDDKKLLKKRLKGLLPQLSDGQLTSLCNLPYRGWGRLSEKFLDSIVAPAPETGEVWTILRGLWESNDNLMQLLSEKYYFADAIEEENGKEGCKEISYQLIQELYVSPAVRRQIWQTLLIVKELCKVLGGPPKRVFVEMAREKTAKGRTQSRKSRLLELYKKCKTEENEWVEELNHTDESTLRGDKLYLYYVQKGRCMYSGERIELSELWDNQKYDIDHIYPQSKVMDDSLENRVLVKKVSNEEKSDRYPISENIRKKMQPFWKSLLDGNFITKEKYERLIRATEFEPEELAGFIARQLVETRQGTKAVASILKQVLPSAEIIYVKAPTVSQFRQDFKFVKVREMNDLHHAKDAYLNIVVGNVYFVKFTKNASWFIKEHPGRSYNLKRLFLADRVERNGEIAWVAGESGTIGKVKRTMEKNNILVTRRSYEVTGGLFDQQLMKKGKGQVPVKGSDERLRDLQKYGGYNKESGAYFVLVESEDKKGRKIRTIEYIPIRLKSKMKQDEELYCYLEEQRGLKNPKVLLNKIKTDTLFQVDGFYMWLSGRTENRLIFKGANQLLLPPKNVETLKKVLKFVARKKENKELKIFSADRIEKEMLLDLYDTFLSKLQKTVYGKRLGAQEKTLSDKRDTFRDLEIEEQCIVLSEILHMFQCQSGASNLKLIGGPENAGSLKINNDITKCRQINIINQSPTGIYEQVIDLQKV

With “GGAAGAGCAGAGCCUUGGUCUCGUUGUAGUCCCCUCGUAGUGAAAACUAUCAGGUCACUACAAUAAAGUAGAACACUGAAAAGCUCUGACGGCCCACUUUCCGUGGGUCGUCAUCUUUUUU / GGAAGAGCAGAGCCTTGGTCTCNNNNNNNN / NNNNNNNNGAGACCAAGGCTCTGCTCTTCC [T2 sgRNA 2 V1 ; T2 protospacer + 8N PAM library (pbPOS T2)]” the activity (1-depletion score) [1] was 0.96.

“GGAAGAGCAGAGCCUUGGUCUCGUUGUAGUUCCCUAAUGUUGAAAGACAUUAGGUUACUGCGAUCAGGCAGUAUGCCUCAGAGCUCCGCCCUAACCACGUUUUGUGGUUGGGGCGUCUUUGCAUUUUUU / GGAAGAGCAGAGCCTTGGTCTCNNNNNNNN / NNNNNNNNGAGACCAAGGCTCTGCTCTTCC [T2 sgRNA 30 V1 ; T2 protospacer + 8N PAM library (pbPOS T2)]” gave an activity (1-depletion score) [2] of 0.95.

With “GGAAGAGCAGAGCCUUGGUCUCGUUGUGAUUUGCUGAAGAAAUUCAGCAAAUCACAAUAAGGAUUAUUCCGUUGUGAAAACAUUCAAGGCGGCGCAAGUCGCCUUUUUU / GGAAGAGCAGAGCCTTGGTCTCNNNNNNNN / NNNNNNNNGAGACCAAGGCTCTGCTCTTCC [T2 sgRNA 29 V1 ; T2 protospacer + 8N PAM library (pbPOS T2)]” the activity (1-depletion score) [3] was 0.87.

With “GGAAGAGCAGAGCCUUGGUCUCGUUUGAGAAUGAUGUAAGAAAUUACAUCAUAAGUUCAAAUAACGAUUUAUCGAAGACGCCGUUUAUAACGGCCCACAGUGAGUGGAAAGAAAGCUGUUGCUCAUAGGAGCAGCAGUUUUUU / GGAAGAGCAGAGCCTTGGTCTCNNNNNNNN / NNNNNNNNGAGACCAAGGCTCTGCTCTTCC [T2 sgRNA 31 V1 ; T2 protospacer + 8N PAM library (pbPOS T2)]” the activity (1-depletion score) [4] was 0.95.

Reference: patent publication US20240425885
